Numbering of substitutions follows the chain as printed.

B1: Y010900 (antibody, V domains shown)
VH: EVQLVESGGGLVKPGGSLRLSCAASGFTFSNAWMSWVRQAPGKGLEWVGRIKSKTDAGTTDYAAPVKGRFTISRDDSKNTLYLQMNSLKTEDTAVYYCARTIYPSAPSSSLDYWGQGTLVTVSS
VL: DIQMTQSPSSLSASVGDRVTITCRASQGISNYLAWYQQKPGKVPKLLIYAASTLQSGVPSRFSGSGSGTDFTLTISSLQPEDVATYYCQQLIFFPLTFGQGTKVEIK
B2: Y010910 (antibody, V domains shown)
VH: EVQLVESGGGLVKPGGSLRLSCAASGFTFSNAWMSWVRQAPGKGLEWVGRIKSKTDAGTTDYAAPVKGRFTISRDDSKNTLYLQMNSLKTEDTAVYYCARVASPSAPGGFDYWGQGTLVTVSS
VL: B1 VL with L91S, I92L, F94A, L96F
B3: Y010906 (antibody, V domains shown)
VH: EVQLVESGGGLVKPGGSLRLSCAASGFTFSNAWMSWVRQAPGKGLEWVGRIKSKTDAGTTDYAAPVKGRFTISRDDSKNTLYLQMNSLKTEDTAVYYCARDEYPWGWFDVWGQGTLVTVSS
VL: B1 VL with L11V, N31S, Y32W, V43A, T53S, V83F, L91Y, F94Y
B4: Y010903 (antibody, V domains shown)
VH: EVQLVESGGGLVKPGGSLRLSCAASGFTFSNAWMSWVRQAPGKGLEWVGRIKSKTDAGTTDYAAPVKGRFTISRDDSKNTLYLQMNSLKTEDTAVYYCARASHRLHSLFDVWGQGTLVTVSS
VL: DIQMTQSPSTLSASVGDRVTITCRASQSISSWLAWYQQKPGKAPKLLIYDASSLESGVPSRFSGSGSGTEFTLTISSLQPEDFATYYCQQGLFYPHTFGQGTKVEIK
B5: MOR024354 (antibody, V domains shown)
VH: QVQLLESGGGLVQPGGSLRLSCAASGFTFSSFGMSWVRQAPGKGLEWVSAISYSGSDTYYADSVKGRFTISRDNSKNTLYLQMNSLRAEDTAVYYCARDVGVMDYWGQGTLVTVSS
VL: SYELTQPLSVSVALGQTARITCSGDNLGTYYAHWYQQKPGQAPVLVIYSQSHRPSGIPERFSGSNSGNTATLTISRAQAGDEADYYCGAWDAPSPELVFGGGTKLTVL
B6: Y010417 (antibody, V domains shown)
VH: EVQLVQSGAEVKKPGESLKISCKGSGYSFTSYWIGWVRQMPGKGLEWMGIIYPGDSDTRYSPSFQGQVTISADKSISTAYLQWSSLKASDTAMYYCARGSSAASGLSGDLWGQGTLVTVSS
VL: DIQMTQSPSSLSASVGDRVTITCRASQSISSYLNWYQQKPGKAPKLLIYAASSLQSGVPSRFSGSGSGTDFTLTISSLQPEDFATYYCQQDYYSPFTFGQGTKVEIK
B7: Y010356 (antibody, V domains shown)
VH: EVQLVESGGGLVKPGGSLRLSCAASGFTFSNYWISWVRQAPGKGLEWVGRIKSKTYGGTTDYAEPVKGRFTISRDDSKNTLYLQMNSLKTEDTAVYYCARVSGYYSHSGGFDVWGQGTLVTVSS
VL: B1 VL with Q90K, L91T, I92W, F93R, F94T, L96G
B8: Y010355 (antibody, V domains shown)
VH: EVQLVESGGGLVKPGGSLRLSCAASGFTFSNYWISWVRQAPGKGLEWVGRIKSKTYGGTTDYAEPVKGRFTISRDDSKNTLYLQMNSLKTEDTAVYYCARTSRRSYAFDYWGQGTLVTVSS
VL: B4 VL with G91I, L92T, F93R, H96V

The target in the first assay is human PMEL17 (human) (UniProt P40967). Kind of assay: FACS titration of IgG on G-361 cells (human melanoma), Alexa Fluor detection antibody.
Sequence of human PMEL17 (human) (P40967 25-661): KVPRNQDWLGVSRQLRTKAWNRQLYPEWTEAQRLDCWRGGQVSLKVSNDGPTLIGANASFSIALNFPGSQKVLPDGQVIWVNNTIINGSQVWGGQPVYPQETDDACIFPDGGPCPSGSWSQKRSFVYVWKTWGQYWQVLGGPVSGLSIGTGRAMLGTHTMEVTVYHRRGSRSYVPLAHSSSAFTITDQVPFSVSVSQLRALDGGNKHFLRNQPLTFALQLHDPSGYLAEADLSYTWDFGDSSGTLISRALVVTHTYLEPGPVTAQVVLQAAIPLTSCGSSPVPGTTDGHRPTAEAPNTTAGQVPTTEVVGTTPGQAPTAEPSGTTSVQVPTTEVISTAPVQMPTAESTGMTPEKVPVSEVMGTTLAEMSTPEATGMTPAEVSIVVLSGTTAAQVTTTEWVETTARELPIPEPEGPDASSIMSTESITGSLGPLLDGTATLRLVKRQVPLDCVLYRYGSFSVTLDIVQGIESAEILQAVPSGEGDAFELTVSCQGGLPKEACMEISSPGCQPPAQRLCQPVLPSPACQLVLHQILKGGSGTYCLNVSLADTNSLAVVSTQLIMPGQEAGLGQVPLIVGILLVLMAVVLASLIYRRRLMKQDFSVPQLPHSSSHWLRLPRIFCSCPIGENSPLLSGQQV
As to B1, the EC50 is 1.3 nM.
Still for that read-out and setting: the figure for B2 is 10 nM; for B3 it is 2 nM.
Same read-out and setting: the value for B4 was 3.2 nM; that for B5 was 1.7 nM.

The next assay shares this target. The assay can be described thus: FACS titration of IgG on G-361 cells (human melanoma), PE detection antibody.
The molecule B6 showed a half-maximal effective concentration (EC50) of 2.8 nM.
Still for that read-out and setting: the figure for B7 is 1.6 nM.
Same read-out and setting: the value for B8 was 0.5 nM.
